Test system: C81 cells
Assay: RT-PCR, Western blot and ELISA in C81 EBP1 transfectants
Type: cell-based, human
Description: FIG. 5A-D. Expression of genes associated with androgen independence is decreased in C81 EBP1 transfectants. A. Lysates of logarithmically growing clones of C81 EBP1 transfectants (E1,2) or vector controls (V 1,2) were resolved by SDS-PAGE and immunoblotted for AR, BCL-2, BAD, FLAG, EBP1 and ACTIN as indicated. Representative of 3 experiments. B. Secreted PSA as measured by ELISA. EBP1 and vector control cells were plated at 1×10^6 cells/100 mm dish in complete media. Forty-eight hours later, conditioned media were collected and frozen. PSA activity was assessed by ELISA. Levels of PSA were adjusted to total cell number. Data is representative of 2 experiments. C. Validation of mRNA levels in EBP1 transfectants. Quantitative RT PCR was performed for the KALLIKREIN-2, AGR2 and TSPY genes in EBP1 and vector transfectants. The relative levels of all test mRNAs were normalized to β-ACTIN. Results are representative of 3 experiments using different sets of cells. D. Expression of AGR2 protein in vector and EBP1 C81 transfectants. Lysates of vector control (V) or EBP1 (E) transfected cells grown in complete media were resolved by SDS-PAGE and analyzed by Western blotting with antibody to AGR2.
Microarray Analysis and Bioinformatics. RNA was prepared using the Trizol Reagent as previously described (8). Microarray processing and data analysis was performed at Genome Explorations (Nashville, Tenn.). U133A oligonucleotide arrays (Affymetrix) containing ˜33,000 full length annotated genes together with additional probe sets designed to represent EST sequences were used for the analysis. Only genes with a minimum expression level of 500 were included in this analysis. […] Oncomine analyses were performed by using Oncomine 3.0 (www.oncomine.org). Real Time Quantitative Reverse-Transcription PCR. Both cell culture samples and a commercial panel of cDNAs from normal prostate and prostate tumors (TissueScan, Origene, Rockville, Md.) were examined. The method of Nakanishi et al. (15) was used as previously described. Real-time quantitative RT-PCR was performed on the LightCycler® (Roche) platform. The following forward and reverse primers were selected using Primer Express software and synthesized by the Core Laboratory of University of Maryland School of Medicine: Ebp1, sense: 5′-GCA CGC CAA TAG AAG G-3′ (SEQ ID NO: 16) and antisense: 5′-GTA AAC GGC ATG GCA TC-3′ (SEQ ID NO: 17) kallikrein-2 sense: 5′-CAT CCA GTC TCG GAT TG-3′ (SEQ ID NO: 18) and antisense: 5′-CTC ATA TTG TAG AGC GGG T-3′ (SEQ ID NO: 19), TSPY, sense: 5′-CAGGGCTTCTCATTCCACTC-3′ (SEQ ID NO: 20) and antisense: 5′-CCATCATATTCAACTCAACAA CTGG-3′ (16; SEQ ID NO: 21), AGR2, sense: 5′-ATTGGCAGAGCAGTTTCTCC-3′ (SEQ ID NO: 22) and antisense, 5′-GAGCTGTATCTGCAGGTTCGT (17; SEQ ID NO: 23) 13-Actin, sense: 5′-GCTATCCAGGCTGTGCTATC-3′ (SEQ ID NO: 24) and antisense 5′-TGT CAC GCA CGA TTT CC-3′ (SEQ ID NO: 25). A SYBR®Green PCR Kit was used as per the manufacturer's instructions (Applied Biosystems, Foster City, Calif.) and the analyses were performed in duplicate or triplicate.
Measurement of PSA levels. Serum PSA levels were determined using a PSA ELISA kit from DSL, Inc (Webster, Tex.) as previously described (9).
Western Blot Analysis. Western blot analysis was performed as previously described (19). The Ebp1 antibody was from Upstate (Lake Placid, N.Y.), the polyclonal antibody to actin from Sigma, the AKT and phospho AKT antibodies from Cell Signaling (Beverly, Mass.) and the AGR2 antibody was previously described (20) Cell Growth Assays Cell growth measurement in complete media was performed as described using a hemocytometer (21). For soft agar growth assays, increasing concentrations of cells (as indicated) were plated in 35 mm Petri dishes in 0.3% agar in complete media and colonies were counted after 10 days of incubation (21). […]

[1] = C81 EBP1 transfectants vs vector controls, real time RT-PCR
[2] = C81 clones transfected with FLAG-tagged EBP1, Western blot

B1: EBP1: ErbB3 binding protein (SEQ ID NO: 2), AR corepressor, here ectopically expressed in cancer cells by stable transfection of an expression plasmid (protein, listed as Homo sapiens)
chain: MSGEDEQQEQTIAEDLVVTKYKMGGDIANRVLRSLVEASSSGVSVLSLCEKGDAMIMEETGKIFKKEKEMKKGIAFPTSISVNNCVCHFSPLKSDQDYILKEGDLVKIDLGVHVDGFIANVAHTFVVDVAQGTQVTGRKADVIKAAHLCAEAALRLVKPGNQNTQVTEAWNKVAHSFNCTPIEGMLSHQLKQHVIDGEKTIIQNPTDQQKKDHEKAEFEVHEVYAVDVLVSSGEGKAKDAGQRTTIYKRDPSKQYGLKMKTSRAFFSEVERRFDAMPFTLRAFEDEKKARMGVVECAKHELLQPFNVLYEKEGEFVAQFKFTVLLMPNGPMRITSGPFEPDLYKSEMEVQDAELKALLQSSASRKTQKKKKKKASKTAENATSGETLEENEAGD
modifications: FLAG tag
C81 EBP1 transfectants in complete media, Western blot
  AGR2 protein: decreased
C81 EBP1 transfectants vs vector controls, ELISA
  decrease of secreted PSA protein levels: 60%
[1]
  AGR2 mRNA downregulation: over 90%
  Kallikrein-2 mRNA downregulation: over 80%
C81 EBP1 transfectants, real time RT-PCR
  TSPY mRNA downregulation: over 90%
[2]
  AR protein level: markedly reduced
  BAD protein level: remained the same as the vector controls
  Bcl2 protein level: markedly reduced

Source: patent publication US7838495B2, “Compositions and methods of use of EPB1, and ErbB3 binding protein” (University of Maryland, Baltimore, priority 2007, dated 2010)
